Molecular target: PD17(p)PS413 (24AWF)
Assay: peptide-coated ELISA (plate coated with 1 µg/ml peptide 24AWF, anti-human IgG-HRP, ABTS, OD405)

EC50 (read off the curve): 0.04 µg/mL
B1: V5-AFM-hIgG4-S228P (antibody, V domains shown)
VH: EVQLVESGGGLVQPGGSLRLSCAASGFTFSSFALNWVRQAPGKGLEWVGHIRSKTNNYVTFYAASVKGRFTVSRDDSQNTAYLQMNSLKTEDTATYYCVRRGPRDSWFGYWGQGTLVTVSS
VL: DIVMTQSPLSLPVTLGEPASISCRSSQKIVHRNANTYLEWYLQKPGQSPQLLIYTVSNRFSGVPDRFSGSGSGTDFTLKISRVEAEDLGVYYCFQGSYLPLTFGGGTKVEIKR

— US20230265175A1
